From patent publication US20180360992A1 (PRECIGEN, published 2018)

Target: the molecule itself
Assay: native-PAGE/immunoblot of conditioned media of transfected 293T cells; self-association (homodimer)

B1: S100A1 with C-terminal fp2a-cleaved linker tail (2A tail), as cleaved from lead dual-gene and triple-gene constructs (other)
chain: MGSELETAMETLINVFHAHSGKEGDKYKLSKKELKELLQTELSGFLDAQKDVDAVDKVMKELDENGDGEVDFQEYVVLVAALTVACNNFFWENSRAKRAPVKQGSGATNFSLLKQAGDVEENPG
notes: Homodimer seen by native PAGE and immunoblot; also called S100A1 with 2A tail
B1: binds.
